Paper PMC9853177 (2023)

Biological target: linear tetra-ubiquitin (M1-linked Ub4) (Homo sapiens, UniProt P0CG47)
Test: ITC

Kd: 90 nM
B1: HOIL-1 (protein)
chain: MDEKTKKAEEMALSLTRAVAGGDEQVAMKCAIWLAEQRVPLSVQLKPEVSPTQDIRLWVSVEDAQMHTVTIWLTVRPDMTVASLKDMVFLDYGFPPVLQQWVIGQRLARDQETLHSHGVRQNGDSAYLYLLSARNTSLNPQELQRERQLRMLEDLGFKDLTLQPRGPLEPGPPKPGVPQEPGRGQPDAVPEPPPVGWQCPGCTFINKPTRPGCEMCCRARPEAYQVPASYQPDEEERARLAGEEEALRQYQQRKQQQQEGNYLQHVQLDQRSLVLNTEPAECPVCYSVLAPGEAVVLRECLHTFCRECLQGTIRNSQEAEVSCPFIDNTYSCSGKLLEREIKALLTPEDYQRFLDLGISIAENRSAFSYHCKTPDCKGWCFFEDDVNEFTCPVCFHVNCLLCKAIHEQMNCKEYQEDLALRAQNDVAARQTTEMLKVMLQQGEAMRCPQCQIVVQKKDGCDWIRCTVCHTEICWVTKGPRWGPGGPGDTSGGCRCRVNGIPCHPSCQNCH
